Where “and” joins values, the source holds several entries; their conditions need not be identical. Equal entries are not always repeated.
How the values were obtained:
[1] = biological target: BACE1 (Homo sapiens, UniProt P56817); assay: HTRF BACE1 enzyme activity assay (long peptide Bi27); assay type: biochemical; conditions: IgG, long peptide substrate
Method: The HTRF assay was performed as follows. […] The proteolytic reaction mixture was incubated at ambient temperature for 75 minutes and was quenched by the addition of 5 μL HTRF detection mixture containing 2 nM Streptavidin-D2 and 150 nM of 6E10 anti-amyloid beta antibody (Covance, Emoryville, Calif.) labeled with Europium cryptate in detection buffer (200 mM Tris pH 8.0, 20 mM EDTA, 0.1% BSA, and 0.8M KF). The final reaction mixture was incubated at ambient temperature for 60 minutes and the TR-FRET signal was measured using an EnVision Multilabel Plate Reader™ (Perkin-Elmer) at an excitation wavelength of 320 nm and emission wavelengths of 615 and 665 nm. Reactions lacking BACE1 enzyme (0 BACE) and reactions containing lacking anti-BACE1 antibodies (PBS (100% BACE1 Activity) were used as controls.
Fab proteins of 6 clones were purified and subjected for HTRF enzyme activity assay, as described above.
The affinity matured YW412.8.31 anti-BACE1 antibody was tested in a HTRF assay as described in Example 1. […] Additionally, reactions using a short FRET peptide (Rh-[…]-quencher (SEQ ID NO:54), Invitrogen) were also performed identically to the HTRF reactions. The resulting fluorogenic products from the control reactions were measured as above, but at an excitation wavelength of 545 nm and an emission wavelength of 585 nm. Obtained data were analyzed using GraphPad Prism 5™ (LaJolla, Calif.).

[2] = biological target: T1, human BACE2 (Homo sapiens, UniProt Q9Y5Z0); assay: MCE assay, BACE2; assay type: biochemical
T1 construct: the extracellular domain of human BACE2 enzyme (5 nM)
T1 sequence (Q9Y5Z0 63-473 limits assumed): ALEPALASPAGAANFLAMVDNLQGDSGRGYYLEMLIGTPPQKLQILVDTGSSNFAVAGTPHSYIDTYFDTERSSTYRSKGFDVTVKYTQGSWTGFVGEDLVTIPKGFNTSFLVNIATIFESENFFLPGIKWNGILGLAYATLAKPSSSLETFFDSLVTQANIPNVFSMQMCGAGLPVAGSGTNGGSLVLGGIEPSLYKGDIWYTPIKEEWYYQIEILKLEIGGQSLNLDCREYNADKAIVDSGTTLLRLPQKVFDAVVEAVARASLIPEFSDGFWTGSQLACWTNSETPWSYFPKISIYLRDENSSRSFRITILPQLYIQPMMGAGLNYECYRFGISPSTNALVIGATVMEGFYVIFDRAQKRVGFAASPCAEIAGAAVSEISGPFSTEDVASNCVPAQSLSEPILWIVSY
Method: (§1) The MCE assay reactions were carried out in a final volume of 20 μL per well in a 384-well microplate. A standard enzymatic reaction, initiated by the addition of 10 μL 2× substrate to 5 μL of 4× enzyme and […] of 4× compound, containing 12 nM human BACE1 extracellular domain, […] amyloid precursor protein beta secretase active site peptide (FAM-[…]-CONH2 (SEQ ID NO:55)), 50 mM NaOAc pH 4.4 and 0.1% CHAPS. The same reaction conditions were used for the extracellular domain of human BACE2 enzyme (5 nM) and the extracellular domain of Cathepsin D (6 nM, Calbiochem®). After incubation for 60 minutes at ambient temperature, the product and substrate in each reaction were separated using a 12-sipper microfluidic chip analyzed on an LC3000® (both, Caliper Life Sciences). The separation of product and substrate was optimized by choosing voltages and pressure using the manufacturer's optimization software. The separate buffer contained 100 mM HEPES pH 7.2, 0.015% Brij-35, 0.1% coating reagent #3, 10 mM EDTA and 5% DMSO. The separation conditions used a downstream voltage of −500V, an upstream voltage of −2250V and a screening pressure of −1.2 psi. The product and substrate fluorescence was excited at a wavelength of 488 nm and detected at a wavelength of 530 nm. Substrate conversion was calculated from the electropherogram using HTS Well Analyzer software (Caliper Life Sciences).

[3] = biological target: T2, murine BACE1 ECD (Mus musculus, UniProt P56818); assay: BIAcore SPR binding kinetics, mouse BACE1; conditions: mouse BACE1, pH 7.0, 25° C.
T2 construct: human BACE1 ECD or murine BACE1 ECD (amino acids 1-457) was injected in PBT buffer
Method: (§2) The binding kinetics of YW412.8.31 was assessed. Briefly, binding affinities of anti-BACE1 IgGs were measured by surface plasmon resonance (SPR) using a BIAcore™-3000 instrument. YW412.8.31 anti-BACE1 human IgG was captured by mouse anti-human Fc antibody (GE Healthcare, cat# BR-1008-39) coated on CM5 biosensor chips to achieve approximately 100 response units (RU). For kinetics measurements, two-fold serial dilutions (0.98 nM to 125 nM) of human BACE1 ECD or murine BACE1 ECD (amino acids 1-457) was injected in PBT buffer (PBS with 0.05% Tween 20) at 25° C. with a flow rate of 30 μl/min. Association rates (kon) and dissociation rates (koff) were calculated using a simple one-to-one Langmuir binding model (BIAcore™ Evaluation Software version 3.2). The equilibrium dissociation constant (KD) was calculated as the ratio koff/kon.

[4] = test system: Aβ1-40 and Aβ1-42 in hAPP transgenic mice; assay: hAPP transgenic mice, systemic (IP) dosing, Aβ levels; assay type: in vivo, mouse; conditions: 100 mg/kg IP, 3 doses Q4D
Method: Briefly, 5-month old human APP-expressing mice were treated with 30 mg/kg or 100 mg/kg YW412.8.31 antibody or vehicle by intra-peritoneal injection every four days for a total of three doses (i.e., at days 1, 5, and 9). Animals were euthanized two hours post the final dose. Serum, plasma, and brains were harvested and processed. Plasma, cortex and hippocampus were analyzed for levels of soluble Aβ1-40 and Aβ1-42 using an Amyloid beta (Aβ) ELISA test kit per manufacture's instructions (The Genetics Company). Pharmacokinetic analysis was performed on serum and brain homogenates.

[5] = biological target: T3, Cathepsin D (Homo sapiens, UniProt P07339); assay: MCE assay, cathepsin D; assay type: biochemical
T3 construct: the extracellular domain of Cathepsin D (6 nM, Calbiochem®); purchased Calbiochem
Method: as §1

[6] = biological target: T4, human BACE1 ECD (Homo sapiens, UniProt P56817); assay: BIAcore SPR binding kinetics, human BACE1
T4 construct: human BACE1 ECD or murine BACE1 ECD (amino acids 1-457) was injected in PBT buffer
Method: as §2

[7] = biological target: Guinea pig BACE1 (Cavia porcellus, UniProt Q1KLR6); assay: BIAcore SPR binding kinetics, guinea pig BACE1; conditions: guinea pig BACE1, pH 7.0
Guinea pig BACE1, sequence (Q1KLR6 46-473): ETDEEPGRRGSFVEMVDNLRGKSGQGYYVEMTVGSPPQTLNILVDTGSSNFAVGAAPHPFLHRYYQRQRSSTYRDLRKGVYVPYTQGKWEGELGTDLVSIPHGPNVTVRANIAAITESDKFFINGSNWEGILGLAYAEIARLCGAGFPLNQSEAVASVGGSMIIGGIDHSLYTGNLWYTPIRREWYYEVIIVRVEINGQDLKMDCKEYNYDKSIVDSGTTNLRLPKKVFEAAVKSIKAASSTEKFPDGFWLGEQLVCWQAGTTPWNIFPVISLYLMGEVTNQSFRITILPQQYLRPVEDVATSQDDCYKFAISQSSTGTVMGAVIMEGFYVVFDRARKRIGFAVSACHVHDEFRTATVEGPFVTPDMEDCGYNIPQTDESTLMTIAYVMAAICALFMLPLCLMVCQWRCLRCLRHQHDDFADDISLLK

T2 sequence (P56818 22-457): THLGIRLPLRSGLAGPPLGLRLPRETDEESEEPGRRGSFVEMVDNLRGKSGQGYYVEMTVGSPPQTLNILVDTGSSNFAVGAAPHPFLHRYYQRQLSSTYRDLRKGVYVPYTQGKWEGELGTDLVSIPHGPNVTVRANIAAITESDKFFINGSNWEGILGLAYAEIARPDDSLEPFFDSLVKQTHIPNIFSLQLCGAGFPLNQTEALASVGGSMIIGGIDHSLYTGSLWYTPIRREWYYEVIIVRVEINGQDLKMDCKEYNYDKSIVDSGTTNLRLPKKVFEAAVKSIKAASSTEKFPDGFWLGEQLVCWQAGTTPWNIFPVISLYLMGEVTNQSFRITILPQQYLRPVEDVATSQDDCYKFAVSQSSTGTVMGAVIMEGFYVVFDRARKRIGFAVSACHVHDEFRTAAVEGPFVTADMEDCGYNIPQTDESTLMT
T4 sequence (P56817 22-457): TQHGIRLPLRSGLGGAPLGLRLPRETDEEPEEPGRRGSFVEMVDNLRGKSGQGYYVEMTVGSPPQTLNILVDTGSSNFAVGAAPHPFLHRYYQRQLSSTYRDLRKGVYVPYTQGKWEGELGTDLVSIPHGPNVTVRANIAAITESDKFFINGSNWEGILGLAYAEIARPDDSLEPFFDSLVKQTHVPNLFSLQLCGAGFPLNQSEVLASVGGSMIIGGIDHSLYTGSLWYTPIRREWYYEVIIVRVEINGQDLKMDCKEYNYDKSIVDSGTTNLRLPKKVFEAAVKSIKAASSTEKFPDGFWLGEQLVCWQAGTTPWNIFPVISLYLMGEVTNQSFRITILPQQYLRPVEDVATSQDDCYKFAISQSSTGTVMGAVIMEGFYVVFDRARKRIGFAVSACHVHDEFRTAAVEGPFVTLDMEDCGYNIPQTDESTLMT
T3 sequence (P07339 65-412, species assumed): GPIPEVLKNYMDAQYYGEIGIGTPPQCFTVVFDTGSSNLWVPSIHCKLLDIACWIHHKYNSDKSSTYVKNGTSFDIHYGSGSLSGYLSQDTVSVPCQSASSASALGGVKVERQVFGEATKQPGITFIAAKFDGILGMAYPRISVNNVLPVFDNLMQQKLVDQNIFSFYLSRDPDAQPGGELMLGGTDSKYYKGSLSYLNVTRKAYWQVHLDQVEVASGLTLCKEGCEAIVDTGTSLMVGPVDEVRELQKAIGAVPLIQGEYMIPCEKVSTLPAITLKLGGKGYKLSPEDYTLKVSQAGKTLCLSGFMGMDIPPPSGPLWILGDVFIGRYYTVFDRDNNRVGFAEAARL
BACE1, sequence (P56817 22-457): as the sequence (P56817 22-457) above

B1: YW412.8.31: affinity matured form of YW412.8 anti-BACE1 antibody (antibody, V domains shown)
VH: EVQLVESGGGLVQPGGSLRLSCAASGFTFLGYGIHWVRQAPGKGLEWVGWISPAGGSTDYADSVKGRFTISADTSKNTAYLQMNSLRAEDTAVYYCARGPFSPWVMDYWGQGTLVTVSS
VL: DIQMTQSPSSLSASVGDRVTITCRASQDVSTAVAWYQQKPGKAPKLLIYSASFLYSGVPSRFSGSGSGTDFTLTISSLQPEDFATYYCQQFPTYLPTFGQGTKVEIK
**Q.** What does the source list for B1?
**A.** maximal inhibition [1]: 77%; inhibition of human BACE2 [2]: did not inhibit; KON [3]: 1.01 × 10^5 M^−1S^−1 and 1.4 × 10^5 M^−1S^−1; Kd [3]: 1.4 nM and 2.1 nM; reduction of Aβ1-40 and Aβ1-42 in the brain [4]: 15-22%; reduction of cortical Aβ1-40 and Aβ1-42 (trend) [4]: 12-18%; reduction of hippocampal Aβ1-40 and Aβ1-42 [4]: 13-22%; inhibition of cathepsin D [5]: did not inhibit; Binding to BACE1 ([6]; at both pH 7.0 and 5.0): confirmed; KON ([6]; human BACE1, IgG captured, pH 7.0, 25° C.): 1.1 × 10^5 M^−1S^−1 and 1.05 × 10^5 M^−1S^−1; KOFF [7]: 2.7 × 10^−4 S^−1; KON [7]: 1.0 × 10^5 M^−1S^−1
